Laboratory results as given in patent US20210363269A1 (ALX ONCOLOGY, published 2021).
Blank lines part the entries; values can stand above or below the binder they belong to.

Columns and labels:
[1] = biological target: T1, cynomolgus SIRP-α D1 domain (SEQ ID NO:12) (cynomolgus, UniProt Q5TFQ8 30-148 (human entry), limits assumed); test: SPR, Langmuir fit
T1 construct: also called cyno2; Cyno2
T1 chain: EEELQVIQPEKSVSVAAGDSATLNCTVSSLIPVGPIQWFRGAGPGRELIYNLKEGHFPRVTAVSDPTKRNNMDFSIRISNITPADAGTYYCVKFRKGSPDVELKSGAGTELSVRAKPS

[2] = biological target: T2, BALB/c mouse SIRP-α D1 domain (mouse (BALB/c strain)); test: SPR, Langmuir fit
T2 chain: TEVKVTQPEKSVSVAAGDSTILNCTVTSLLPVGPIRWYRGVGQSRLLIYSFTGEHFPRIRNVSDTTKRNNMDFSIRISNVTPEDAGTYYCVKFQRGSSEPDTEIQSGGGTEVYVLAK

[3] = biological target: T3, NOD mouse SIRP-α D1 domain (mouse (NOD strain)); test: SPR, Langmuir fit
T3 chain: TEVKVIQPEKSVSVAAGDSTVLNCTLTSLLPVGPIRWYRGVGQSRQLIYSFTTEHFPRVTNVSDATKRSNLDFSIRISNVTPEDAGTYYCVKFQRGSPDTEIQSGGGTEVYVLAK

[4] = biological target: T4, cynomolgus SIRP-α D1 domain (SEQ ID NO:11) (cynomolgus, UniProt Q5TFQ8 30-148 (human entry), limits assumed); test: SPR, Langmuir fit
T4 construct: also called cyno1
T4 chain: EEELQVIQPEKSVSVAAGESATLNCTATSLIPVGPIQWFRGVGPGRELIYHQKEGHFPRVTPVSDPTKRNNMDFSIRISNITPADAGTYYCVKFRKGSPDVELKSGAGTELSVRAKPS

[5] = biological target: T5, C57BL/6 mouse SIRP-α D1 domain (mouse (C57BL/6 strain), UniProt P97797 32-148); test: SPR, Langmuir fit
T5 sequence: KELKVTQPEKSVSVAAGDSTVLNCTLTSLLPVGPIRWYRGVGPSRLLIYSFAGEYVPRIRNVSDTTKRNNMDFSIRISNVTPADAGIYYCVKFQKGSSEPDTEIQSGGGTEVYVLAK

human SIRP-α v1 = biological target: T6, human SIRP-α v1 (human, UniProt P78324 31-149); test: SPR
T6 construct: also called Human v1; Human V1
Outline: (§1)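 Purified antibodies were either amine-coupled to a GLC chip or captured via biotinylated Protein A on an NLC chip of a ProteOn XPR36 biosensor. Runs were at 25° C in PBS pH 7.4 with 0.01% Tween-20. SIRP analytes were injected in one-shot kinetic mode at nominal concentrations set by A280 absorbance. Double-referenced data were fitted globally to a simple Langmuir model, giving apparent rate constants, with KD taken as kd/ka.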

human SIRP-α v2 = biological target: T7, human SIRP-α v2 (human); test: SPR KD
T7 construct: also called Human v2; Human V2
Outline: as §1

human SIRPγ isoform 1 [6] = biological target: T8, human SIRPγ isoform 1 (human, UniProt Q9P1W8 29-147); test: SPR Koff +/-
T8 construct: also called Gamma; Human SIRPg
Outline: as §1

human SIRPβ isoform 1 [7] = biological target: T9, human SIRPβ isoform 1 (human, UniProt O00241 30-148); test: SPR Koff +/-
T9 construct: also called Beta; Human SIRPb
Outline: as §1

cynomolgus SIRP-α = biological target: T10, cynomolgus SIRP-α (cynomolgus monkey, UniProt Q5TFQ8 30-148 (human entry), limits assumed); test: SPR Koff +/-
T10 construct: also called cyno1
T10 chain: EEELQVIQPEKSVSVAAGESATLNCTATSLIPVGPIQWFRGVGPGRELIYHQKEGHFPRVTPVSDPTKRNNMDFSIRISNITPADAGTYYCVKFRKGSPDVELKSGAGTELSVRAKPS
Outline: as §1

mouse 129 SIRP-α = biological target: T11, mouse 129 SIRP-α (mouse (129 strain), UniProt P97797 32-150); test: SPR Koff +/-
T11 construct: also called m129
T11 chain: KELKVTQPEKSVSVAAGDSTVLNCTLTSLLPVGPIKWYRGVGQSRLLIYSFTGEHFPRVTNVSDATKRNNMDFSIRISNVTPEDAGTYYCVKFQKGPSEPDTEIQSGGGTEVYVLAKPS
Outline: as §1

human SIRPβ isoform 1 [8] = biological target: T12, human SIRPβ isoform 1 (human, UniProt O00241 30-148); test: SPR, ProteOn, antibody on chip
T12 construct: also called sirpb1; Sirpb1
Method: (§2) All experiments were performed at 25° C. using a SPR-based ProteOn XPR36 biosensor (BioRad, Inc, Hercules, Calif.) equipped with GLC or NLC sensor chips. […] Purification was carried out by standard Protein A affinity column chromatography and eluted antibodies were stored in PBS buffer.
(§3) The running buffer was PBS pH 7.4 with 0.01% Tween-20 (PBST+). All analytes were used at their nominal concentrations as determined by A280 Absorbance and using their molar calculated extinction coefficient.
(§4) For the method using GLC chip, the analytes were injected and flowed over anti-SIRPα antibodies immobilized (˜1000 RUs) on GLC chips using Proteon™ Amine Coupling Kit. For the immobilization step, GLC chip was activated with EDAC/Sulpho-NHS 1:1 (Biorad) diluted 1/100 for 300 s at 25 μL/min. Anti-SIRPα antibodies were diluted to 80 nM concentration in 10 mM sodium acetate buffer pH 4.5 and immobilized to the chip at 30 μL/min for 50 s. Chip was inactivated with ethanolamine for 300 s at 25 μL/min. The analytes (e.g., SIRP-α from different species, SIRP-β, SIRP-γ) were injected in a “one-shot” kinetic mode at nominal concentrations of 100, 33, 11, 3.7, 1.2 and 0 nM. Association times were monitored for 90 s at 100 μL/min, and dissociation times were monitored for 1200 s. The surfaces were regenerated with a 2:1 v/v blend of Pierce IgG elution buffer/4M NaCl.

[9] = biological target: T13, human SIRP-α v2 D1 domain (human); test: SPR, ProteOn, antibody on chip
T13 construct: also called human v2; human α v2
Method: as §2, §3, §4

human SIRPβ isoform 2 = biological target: T14, human SIRPβ isoform 2 (human, UniProt Q5TFQ8 30-148); test: SPR, ProteOn, antibody on chip
T14 construct: also called Sirpb2; beta isoform 2
Method: as §2, §3, §4

[10] = biological target: T4, cynomolgus SIRP-α D1 domain (SEQ ID …); test: SPR, ProteOn, antibody on chip
Method: as §2, §3, §4

[11] = biological target: T15, human SIRP-α v1 D1 domain (human, UniProt P78324 31-149); test: SPR, ProteOn, antibody on chip
T15 construct: also called human v1; human α v1
Method: as §2, §3, §4

human SIRPγ isoform 1 [12] = biological target: T16, human SIRPγ isoform 1 (human, UniProt Q9P1W8 29-147); test: SPR, ProteOn, antibody on chip
T16 construct: also called sirpg; sirp-g
Method: as §2, §3, §4

T7 sequence (chain, as listed by the source limits assumed): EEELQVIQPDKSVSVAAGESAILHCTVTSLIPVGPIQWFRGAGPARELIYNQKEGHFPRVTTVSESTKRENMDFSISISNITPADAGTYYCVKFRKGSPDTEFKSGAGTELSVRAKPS
T6 sequence (P78324 31-149 limits assumed): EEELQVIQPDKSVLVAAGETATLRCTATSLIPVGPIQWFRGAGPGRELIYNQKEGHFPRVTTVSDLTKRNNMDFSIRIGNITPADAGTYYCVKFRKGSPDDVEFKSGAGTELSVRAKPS
T14 sequence (Q5TFQ8 30-148 limits assumed): as the sequence (P78324 31-149 limits assumed) above, with V13I, L14S, T20S, R24H, A27V, G79S, D101H counted along it
T13 sequence (chain, as listed by the source limits assumed): as the sequence (chain, as listed by the source limits assumed) above

- binding result [1]: no binding
- binding result [2]: no binding
- binding result [3]: no binding
- binding result [4]: no binding
- binding result [5]: no binding
B1: AB45 (as in Table J1) (antibody, V domains shown)
VH: AVTLDESGGGLQTPGGALSLVCKASGFTFSSYAMGWVRQAPGKGLEWVAGIDDDGSTANYGPAVKGRATISRDNGQSTVRLQLNNPRAEDSGTYFCAKASVTGWSAHISGRLDTWGHGTEVIVSS
VL: ALTQPASVSANPGETVKITCSGGGIYYYGWYQQKSPGSAPVTLIYENDKRPSDIPSRFSGSTSGSTNTFTITGVQAEDEAVYYCGGYDSNTTSGIFGAGTTLTVL
notes: also called antibody 45

- Kd (human SIRP-α v1): 0.605 nM
- binding result (human SIRP-α v2): no binding
- binding result (human SIRPγ isoform 1 [6]): binds
- binding result (human SIRPβ isoform 1 [7]): no binding
- binding result (cynomolgus SIRP-α): binds
- binding result (mouse 129 SIRP-α): no binding
B2: antibody 123 (antibody, V domains shown)
VH: VQLVESGGGLVQPGGSLRLSCTASGFTFRNYGMSWVRQAPGEGLEWVSASSGSGSTYYTDSVKGRFTISRDNSKNTLYLQMNSLRAEDTAIYYCAKVTWNNFFDYWGLGTLVTVSS
VL: EIVLTQSPGTLSVSPGERVTLTCRASQGIAGKIAWYQQKPGQAPRLLIYDASSRATGIPGRFSGSGSGTEFTLTITSLQSEDFAVYYCQQHYDWSPLTFGGGTKVEIK
notes: also called S123

- Kd (human SIRP-α v1): 0.497 nM
- binding result (human SIRP-α v2): no binding
- binding result (human SIRPβ isoform 1 [7]): no binding
B3: antibody 194 (antibody, V domains shown)
VH: DVQLVESGGGVVRPGESLRLSCAASGFTFRNYGMSWVRQAPGEGLEWVSASSGSGSTYYADSVKGRFTISRDNSKNTLYLQMNSLRAEDTAIYYCAKVTWNNFFDYWGLGTLVTVSS
VL: EIVLAQSPDTLSVSPGERATLTCRASQDVAGKLAWYQQKPGQAPRLLIHATSSRADGIPARFSGSGSGTEFTLTITGLQSEDFAVYYCQQHYDWSPLTFGGGTKVEIK
notes: also called S194

- Kd (human SIRPβ isoform 1 [8]): 0.131 nM
- Kd [9]: 1.86 nM
- Kd (human SIRPβ isoform 2): 0.164 nM
- Kd [10]: 2.41 nM
- Kd [11]: 0.426 nM
- Kd (human SIRPγ isoform 1 [12]): 0.519 nM
B4: AB132a (antibody, human IgG1, V domains shown)
VH: DVQLVESGGGVVRPGESLRLSCAASGFSFRSYAMNWVRQAPGEGLEWVSRINSGGGGTDYADSVKGRFTISRDNSKNTLYLQMNSLRAEDTAVYYCAKQYDWNSFFDYWGLGALVTVSS
VL: ETVLTQSPATLSVSPGERATLSCRASQTVGSKLAWHQQKPGQAPRLLIYDASNRATGIPDRFSGSGSGTDFTLTISSPQTEDSAVYYCQQYYYWPPYRFGGGTKVEIK
notes: Full-length human IgG1 with L234A, L235A, G237A and N297A; only variable domains tied to the clone
